Measurements reported in publication PMC9977449, “Discovery of lipid-mediated protein–protein interactions in living cells using metabolic labeling with photoactivatable clickable probes†” (Chemical Science, 2023).

Columns and labels:
[1] = molecular target: T1, FSP1-TST, wild type, from cells under NMT inhibition (UniProt Q9BRQ8 1-373); test: co-IP; as a2, wild-type FSP1-TST with NMT inhibition of the cells; conditions: partners not purified
T1 construct: FSP1 (ferroptosis suppressor protein 1); same construct as m3; not shown: Twin-Strep-tag, C-terminal, kept
T1 sequence (looked up): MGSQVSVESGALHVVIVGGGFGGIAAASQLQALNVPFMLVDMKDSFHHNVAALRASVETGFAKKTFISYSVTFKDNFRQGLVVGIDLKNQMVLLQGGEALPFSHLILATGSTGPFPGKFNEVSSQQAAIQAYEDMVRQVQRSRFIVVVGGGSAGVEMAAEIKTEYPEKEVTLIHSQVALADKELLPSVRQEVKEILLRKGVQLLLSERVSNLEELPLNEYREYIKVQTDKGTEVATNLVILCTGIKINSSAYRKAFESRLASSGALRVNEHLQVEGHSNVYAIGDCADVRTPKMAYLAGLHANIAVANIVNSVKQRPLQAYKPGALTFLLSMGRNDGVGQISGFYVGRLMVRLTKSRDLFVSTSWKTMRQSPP

[2] = molecular target: T2, FSP1-TST, myristoylation-deficient G2A mutant (UniProt Q9BRQ8 1-373, G2A); test: co-IP; TST-tagged protein (WT or G2A) transfected in HEK293 cells, captured on Strep-Tactin resin; blot with TRA2B or TOMM40 antibody, signal normalised to the bait's signal; conditions: partners not purified
T2 construct: FSP1 (ferroptosis suppressor protein 1) with G2A; also called FSP1 G2A mutant; source: HEK293, transfected, in lysate; not shown: Twin-Strep-tag, C-terminal, kept
T2 sequence (looked up): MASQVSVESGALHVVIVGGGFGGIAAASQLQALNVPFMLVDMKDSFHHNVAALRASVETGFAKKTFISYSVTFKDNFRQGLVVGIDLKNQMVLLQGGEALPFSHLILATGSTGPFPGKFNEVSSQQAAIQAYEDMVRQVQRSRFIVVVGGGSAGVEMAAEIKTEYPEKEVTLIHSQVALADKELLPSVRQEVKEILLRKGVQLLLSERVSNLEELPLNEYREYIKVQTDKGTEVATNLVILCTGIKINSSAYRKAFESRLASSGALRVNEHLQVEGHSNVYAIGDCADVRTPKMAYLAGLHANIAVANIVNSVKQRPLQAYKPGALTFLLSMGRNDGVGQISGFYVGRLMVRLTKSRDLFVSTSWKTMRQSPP

co-immunoprecipitated TOMM40, percent of WT [1]: 28 % of WT | co-immunoprecipitated TOMM40, percent of WT FSP1 [2]: 22 % of WT FSP1
B1: TOMM40, mitochondrial protein that facilitates protein import into mitochondria (natural protein, human (endogenous in HEK293), UniProt O96008 1-361, looked up)
chain: MGNVLAASSPPAGPPPPPAPALVGLPPPPPSPPGFTLPPLGGSLGAGTSTSRSSERTPGAATASASGAAEDGACGCLPNPGTFEECHRKCKELFPIQMEGVKLTVNKGLSNHFQVNHTVALSTIGESNYHFGVTYVGTKQLSPTEAFPVLVGDMDNSGSLNAQVIHQLGPGLRSKMAIQTQQSKFVNWQVDGEYRGSDFTAAVTLGNPDVLVGSGILVAHYLQSITPCLALGGELVYHRRPGEEGTVMSLAGKYTLNNWLATVTLGQAGMHATYYHKASDQLQVGVEFEASTRMQDTSVSFGYQLDLPKANLLFKGSVDSNWIVGATLEKKLPPLPLTLALGAFLNHRKNKFQCGFGLTIG
modifications: myristoylated (the paper: 'is itself also myristoylated')
notes: TOMM40, endogenous in HEK293 cells, detected with a TOMM40 antibody; source: endogenous, HEK293 lysate
